Measured values reported in publication PMC11611905, “Recruitment of autophagy initiator TAX1BP1 advances aggrephagy from cargo collection to sequestration” (The EMBO Journal, 2024).

T1: GFP-NBR1 (purified) (UniProt Q14596 1-966)
T1 construct: NBR1; source: HEK293 (pCAGGSsH-C vector, VBCF ProTech facility), purified; not shown: GFP, N-terminal, kept
T1 sequence (looked up): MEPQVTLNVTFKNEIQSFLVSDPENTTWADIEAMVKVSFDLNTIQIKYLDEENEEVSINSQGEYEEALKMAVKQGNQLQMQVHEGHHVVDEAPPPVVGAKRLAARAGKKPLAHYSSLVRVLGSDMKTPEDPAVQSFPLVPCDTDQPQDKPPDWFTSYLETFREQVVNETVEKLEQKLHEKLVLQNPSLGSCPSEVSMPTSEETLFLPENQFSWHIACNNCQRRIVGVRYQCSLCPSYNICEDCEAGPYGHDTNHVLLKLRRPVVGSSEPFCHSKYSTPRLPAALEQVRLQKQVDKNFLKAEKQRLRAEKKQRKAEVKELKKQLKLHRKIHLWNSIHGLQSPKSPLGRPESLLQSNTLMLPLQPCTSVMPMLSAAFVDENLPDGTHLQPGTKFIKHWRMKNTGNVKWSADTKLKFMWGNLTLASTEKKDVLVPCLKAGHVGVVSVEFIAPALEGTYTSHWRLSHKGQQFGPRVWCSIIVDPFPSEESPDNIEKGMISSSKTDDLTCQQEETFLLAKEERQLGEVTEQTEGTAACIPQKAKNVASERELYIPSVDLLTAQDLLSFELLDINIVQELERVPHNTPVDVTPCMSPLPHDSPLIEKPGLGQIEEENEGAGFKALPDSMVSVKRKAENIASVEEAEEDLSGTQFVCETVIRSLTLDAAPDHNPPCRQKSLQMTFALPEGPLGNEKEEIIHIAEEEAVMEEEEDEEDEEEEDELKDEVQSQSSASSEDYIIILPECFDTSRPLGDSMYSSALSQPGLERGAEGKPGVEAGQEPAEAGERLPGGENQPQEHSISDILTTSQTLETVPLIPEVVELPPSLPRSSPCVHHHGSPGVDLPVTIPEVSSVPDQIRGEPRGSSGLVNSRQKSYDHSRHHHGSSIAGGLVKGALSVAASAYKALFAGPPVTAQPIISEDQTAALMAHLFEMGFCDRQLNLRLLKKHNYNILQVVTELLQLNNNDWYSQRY


How the values were obtained:
Conditions in all cases: both partners purified
GFP-NBR1 (purified) = target: T1, GFP-NBR1 (purified); assay: microscopy-based protein interaction assay; GST-TAX1BP1 (FL, N-domain, point mutants; 2.5 µM) as bait on GSH beads, 1 µM GFP-NBR1 as prey; SEC buffer (25 mM HEPES pH 7.5, 150 mM NaCl, 1 mM DTT); 15-30 min at RT; confocal imaging of the beads
10x-His-mCherry-TAX1BP1 = target: T2, 10x-His-mCherry-TAX1BP1 (UniProt Q86VP1 1-789); assay: microscopy-based protein interaction assay; mCherry-TAX1BP1 on RFP-trap beads, GFP-tagged NBR1 fragment CC2-LIR1 as prey
T2 construct: TAX1BP1, full-length (FL); also called mCh-TAX1BP1; mCherry-TAX1BP1 FL; source: Sf9 insect cells (pLIB vector, baculovirus), purified; not shown: mCherry, N-terminal, kept
T2 sequence (Q86VP1 whole entry, the tested form may be a part): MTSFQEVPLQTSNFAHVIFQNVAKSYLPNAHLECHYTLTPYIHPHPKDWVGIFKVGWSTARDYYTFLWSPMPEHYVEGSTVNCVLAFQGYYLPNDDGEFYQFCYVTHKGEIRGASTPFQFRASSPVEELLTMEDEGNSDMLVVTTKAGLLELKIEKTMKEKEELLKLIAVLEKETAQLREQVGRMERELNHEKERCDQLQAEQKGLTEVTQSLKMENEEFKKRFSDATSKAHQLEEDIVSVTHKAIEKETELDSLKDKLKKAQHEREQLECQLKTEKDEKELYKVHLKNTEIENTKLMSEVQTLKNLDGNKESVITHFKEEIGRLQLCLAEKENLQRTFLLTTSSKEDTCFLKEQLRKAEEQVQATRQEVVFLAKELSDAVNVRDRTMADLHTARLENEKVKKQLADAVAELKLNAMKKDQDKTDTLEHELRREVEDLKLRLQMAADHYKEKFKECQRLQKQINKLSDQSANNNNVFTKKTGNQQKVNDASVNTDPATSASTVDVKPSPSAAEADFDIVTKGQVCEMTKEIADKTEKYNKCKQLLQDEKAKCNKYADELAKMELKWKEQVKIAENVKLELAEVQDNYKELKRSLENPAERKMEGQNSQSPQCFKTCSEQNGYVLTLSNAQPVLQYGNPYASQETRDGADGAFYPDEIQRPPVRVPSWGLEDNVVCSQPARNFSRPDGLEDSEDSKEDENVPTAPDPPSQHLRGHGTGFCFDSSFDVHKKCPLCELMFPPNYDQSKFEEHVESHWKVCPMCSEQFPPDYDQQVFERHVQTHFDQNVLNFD

10x-His-GFP-TAX1BP1 = target: T3, 10x-His-GFP-TAX1BP1 (UniProt Q86VP1 1-789); assay: peptide or protein array; entire NBR1 sequence spotted as 12 aa peptides on a membrane; GFP-TAX1BP1 at 50 µg/ml in SEC buffer, 2 h at RT; detection by western blot
T3 construct: TAX1BP1, full-length (FL); also called GFP-TAX1BP1 FL; recombinant TAX1BP1; source: Sf9 insect cells (pLIB vector, baculovirus), purified; not shown: GFP, N-terminal, kept
T3 sequence (Q86VP1 whole entry): as the sequence (Q86VP1 whole entry, the tested form may be a part) above

Binder | binding result (10x-His-GFP-TAX1BP1) | also measured
GST-N-domain (aa420-506 of TAX1BP1) (domain or fragment, UniProt Q86VP1 420-506, looked up) DQDKTDTLEHELRREVEDLKLRLQMAADHYKEKFKECQRLQKQINKLSDQSANNNNVFTKKTGNQQKVNDASVNTDPATSASTVDVK | – | binding result (GFP-NBR1 (purified)): binds
GFP-CC2-LIR1 (NBR1 aa685-aa757) (domain or fragment, UniProt Q14596 685-757, looked up, the methods name the purified protein GST-GFP-CC2-LIR1 and give two ways of elution (TEV cleavage or glutathione) without saying which was used; also called GST-GFP-CC2-LIR1; source: E. coli Rosetta pLysS, purified (GSH beads, SEC); not shown: GFP, N-terminal, kept) LGNEKEEIIHIAEEEAVMEEEEDEEDEEEEDELKDEVQSQSSASSEDYIIILPECFDTSRPLGDSMYSSALSQ | – | binding result (10x-His-mCherry-TAX1BP1): binds
RPESLLQSNTLMLPLQPCT (peptide, UniProt Q14596 347-365, looked up, NBR1 aa347-365, covered by overlapping 12 aa spots of the peptide array; also called parts of the FW domain; source: synthetic peptides spotted on a membrane (Peptide Synthesis facility of the IMP)) [NBR1 peptides of binding region 1 (aa347-aa365)] | binds | –
DYIIILPECFDTSRPLGDS (peptide, UniProt Q14596 731-749, looked up, NBR1 aa731-749, covered by overlapping 12 aa spots of the peptide array; source: synthetic peptides spotted on a membrane (Peptide Synthesis facility of the IMP)) [NBR1 peptides of binding region 2 (aa731-aa749)] | binds | –
